Experimental data from the nanobody polyreactivity screen of Harvey et al. (2022).

Experiment: yeast display, Sf9 membrane polyspecificity reagent, FACS + sequencing; frameworks hold sequencing errors
In short: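 Sorting gates, low and high (top ~1%), were placed on anti-HA fluorescence to track expression and on streptavidin fluorescence to track reagent binding. A clone's polyreactivity label is taken from the gate it came out of. The reagent was 10% biotinylated, detergent-solubilized Sf9 membrane, applied for 1 hour at 4 °C to galactose-induced yeast display cells.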

Row | Sequence | polyreactivity (PSR sort gate)
1 | QVQLVESGGGLVQAGGSLRLSCAASAFTFRYNAMGWYRQAPGKERELVATIDWSGGRTYYADSVKGRFTISRDNAKNTVYLQMNSLKPEDTAVYYCNAAALFRYYVRWKSAYDYWGQGTQVTVSS | high polyreactivity
2 | QVKLQESGGGLVQAGGSLRLSCAASGYISHADEMGWYRQAPGKEHELVASISNGGSTNYADSVKGRFTISRDNAKNTVYLQMNSLKWEDTAVYYWAAWTGQVDIHYYWGQGTQVTVSS | low polyreactivity
3 | QVQLVESGGGLVQAGGRLRLSCAASGRTFGYNFMGWYRQAPGKERELVAAISSSGGSTYYADSVKGRFTISRDNGMNTVYLQMNSLKREDTAVYYCNARRGRASGMDYWGQGTQVTVSS | high polyreactivity
4 | QVQLVESGGGLVQAGGSLRLSCAASGRTFRHNALGWYRQAPGKERELVAAISKSGGRTYYADSVKGRFTISRDNAKNTVYLQMNSLKPEDTAVYYCAAPLYVSTSGEVGYWGQGTQVTVSS | high polyreactivity
5 | QVQLVESGGGLLQAGGSLRLSCADSGRTFCPNVMGCYRQAPGKERELVAAITWGDASTYYADSVKGRFTISRDNAKNTVYLQMNCLKPEDTAVYYCGAKSSTRGDYWGQGTQVTVSS | low polyreactivity
6 | QVQLVESGGGLVQAGGSLRLSCAAYGRTFTWYSMGWYRQAPGKERELVAAISKSGGSTYYSDSVKGRFTISRDNAKITVYLQMNSLKPEDTAVYYCNAEFYGYFLGYGYWGQGTQVSVSS | low polyreactivity
7 | QVQLVESGGGLVQAGGSLRLSCASSGRIFFKYAMGWYRQARGKERELLATITWRGSSTYYADSVKWRFTISRDNAKNTVYFQMNSLKPEDTAVYYCAAVAAWWYHQGVRYDYWGQGSQVTVSS | high polyreactivity
8 | QVQLVESGGGLVQAGGSLRLSCAASGRTLFPYAMGWYIQAPGKERELVAAITSRGTSTYYADSVKGRFTISRDIAKNNVYLQMNSLKPEDTAVYYCAKDGWFWGWRFDYCGQGTQVTVSS | low polyreactivity
9 | QVQLVESGGGIVQAGGSLRLSCAASGSIFPDNTMGWYRQAPGKERELVAAITGDGSTYYADSVKGRFTISRDNAKNTVYLERNSLKPEDTAVYYCAAASPSWSYWPRDYWGQGTQVTVSS | low polyreactivity
10 | QVQLVESGGGLVQAGGSLRLSCAASGRIFGLYAMGWYRQAPGKERELVAAISRRGGTTYYADSVKGRFTISRDNAKNTVYLQMNSLKPEDTAVYYCAAATVYLSWYYWGQGTQVTVSS | high polyreactivity
11 | QVQLVESGGGLDQAGGSLRLSCAASGSIFYPYAMRWYRQAPGKERELVAAISSGGGTNYADSVKGRFTISRDNAKNTVYLQMNSLKPEDTEVYYCNARTGTTWQGYEYDYWGQGTQVTVSS | low polyreactivity
12 | QVQLVESGGGLVQAGGSLRLSCAASGRIFGHYAMGWYRQAPGKERELVAAISRGGSTYYADSVKGRFTISRDNAKNTVYLQMNSLKPEDTAVYYCNTTKAYGSLWWRGDYWGQGTQVTVSA | high polyreactivity
13 | QVQLVESGGGLVQAGGSLRLSCAASGSIFAVNAMGLYRQAPGKERELVATITGRDGSTYYADSVKGRFTISRDNAKNTVYLQMNRLKPEDTAVYYCTARRKRTYDYWGQGTQVTVSS | high polyreactivity
14 | QVQLVESGGGLVQAGGSLRLSCAASGSIFGYYAMGWYRQAPGKERELVAAITRSGGRTYYADSVKGRFTISRDNAKNTVYLQMNSQKPEDTAVYYCATEWLKDRYPYGYWGQGTQVTVSS | high polyreactivity
15 | QVQLLESGGGLVQAGGSLRLSCAPSGRTFARYDMAWYTQAPGKERELVAVISRTGSTYYADSVKGSFTISRDNEKITVYLLMNSLKPEDTAVYYCATVYVYWGQGTQVTVSS | high polyreactivity
16 | QVQLVESGGGLVQAGGSLRLSCAASGSTFIFYTMGWYRQAPGKERELVAAITSNGGSTYYADSVKGRFTISRDNAKNTVYLQMNSLKPEDTAVYYCARVDRWRRYRYIFSGYDYWGQGTQVTVSS | high polyreactivity
17 | QVQLVESRGRLVQAGGSLRLSCAASGSIFVGNAMGWYRQAPGKERELVAAISSGGSTYYADSVKGRFTISRDNAKNTVYLQMNSLKPEDTAVYFGAAYYVRRYSSRPKDDYWGQGTQVSVSS | low polyreactivity
18 | QVQLVESGGGLVQAGGSLRLSCAPSGITFRSYAMGWYRQAPGKERELVATISWSGGITYYADSVKGRFTISRDNAKNTVYLQMNSLKPEDTAVYYCATASQSWGRDDYYYWGQGTQVTVSS | low polyreactivity
19 | QVQLVESGGGLVQAGGSLRLSCAASGFTFYPYAMGWYRQAPGKERELVAAITSGGRTNYADSVKGRFTISRDNAKNTVYLQMNSLKPEDTAVYYCNTVSWWGRNYQDEYYYWGQGTQVTVSS | high polyreactivity
20 | QVQLVESGGGLVQAGGSLRLSCAASGFIFYGYAMGWYRQAPGKERELVAGISTVGSTNYADSVKGRFTISRDNAKNTVYLQMNSLKPEDSAVYYCAVVDVEDHVGHWGQGTQVTVSS | low polyreactivity
21 | QVQLVESGGGLVQAGGSLRLSCASSGFTFSVYAMGWYRQAPGKERELVAAITWRGGSTYYADSVKGRFTISRDNAKNTVYLQMNSLKPEDTAVYYCAVLYPKYGKRYGYWGQGTQVTVSS | high polyreactivity
